For test [1], the target named is GPC3ΔGPI-FLAG重组蛋白 (Homo sapiens (Human)) (UniProt P51654). Kind of test: ELISA on coated GPC3ΔGPI-FLAG after 2 h treatment of the antibody at pH 2.
Test [2] has the same target. Nature of the test: ELISA on coated GPC3ΔGPI-FLAG after 2 h treatment of the antibody at pH 10.
Test [3] has as its target mCherry-GPC3 (on stably expressing HEK293T cells) (UniProt P51654). Nature of the test: immunofluorescence colocalisation on HEK293T cells expressing mCherry-GPC3.

HN3-hFc融合抗体 (Fc fusion) yielded a 抗原结合能力下降 (A450 against pH 7), antibody treated at pH 2 in test [1] of 47.9%. In addition, in test [2], the 抗原结合能力下降 (A450 against pH 7), antibody treated at pH 10 was found to be 28.2%.

B1: 纳米抗体G10 (G10-His, GPC3 nanobody) (VHH, not shown: small tags and cut ends)
VHH: QVQLVESGGALVQPGGSLRLSCAASGMTGIFWRLRWYRQAPGKEREWVCGISQLPTPASYEDSVKGRFTCSRDDARNTVYLQLNSLKPEDTAVYYCAAANVLPGLPAELPIYWGQGTQVTVSS
Consider B1, for which, in test [1], the 抗原结合能力下降 (A450 against pH 7), antibody treated at pH 2 is 26.1%. In test [3], the 皮尔森相关系数 (Pearson correlation of mCherry and Alexa Fluor 488 signals) was found to be 0.94. The molecule further returned a 抗原结合能力下降 (A450 against pH 7), antibody treated at pH 10 in test [2] of 14.4%.

The record behind these values is CN111848803A.
